How the values were obtained:
[1] = system: PD-L1 surface expression on monocytes; assay: PD-L1 surface expression on human monocytes from PBLs, flow cytometry; format: cell-based; details: for IL-25-mediated induction of PD-L1 in human primary monocytes: inhibitor pretreatment (WP1066 2.5 μM; SP600125 25 μM; PD98059 20 μM; LY294002 10 μM; Akt inhibitor III 10 μM), then 100 ng/ml rhIL-25 for 18 hours
Protocol: FIG. 9. IL-25-mediated PD-L1 expression in human monocytes and hMSCs is mediated through JNK and STAT3 with STAT3 involved in transcriptional control of PD-L1. (A) Human PBLs were pretreated with inhibitors of STAT3 (WP1066; 2.5 μM), JNK (SP600125; 25 μM), or MEK1 (PD98059; 20 μM) prior to 100 ng/ml rhIL-25 for 18 hours, with subsequent flow cytometric analysis for PD-L1 surface expression on monocytes, gated using FSC and SSC. Filled histograms represent isotype control. Unfilled histograms represent PD-L1 antibody staining. Pooled data (3 donors) provided in (B) with bars representing MFI. hMSCs were treated with inhibitors of (C) STAT3 (WP1066; 2.5 μM) and (D) JNK (SP600125; 25 μM) for 6 hours, and subsequently assessed by flow cytometric analysis for PD-L1 surface expression. Pooled data (all 3 donors) for each respective inhibitor provided (left charts) with bars representing MFI. (D) Putative GAS elements (STAT-binding sites) in the proximal promoter region of human PD-L1 gene; 700 bp region upstream from the transcription start site), as determined with TFSearch web-based software. (E) Binding of STAT3 or IgG (negative control) in hMSCs was analyzed by chromatin immunoprecipitation (ChIP) with promoter-specific primers for region 1 and region 2. The input samples (positive control) represent 1% starting chromatin. (F) Schematic of model of hMSC-mediated suppression of Th17 responses involving IL-25/STAT3/PD-L1 axis.
FIG. 10. Involvement of signal pathways for IL-25-induced expression of PD-L1 in human peripheral blood monocytes. (A) Pooled data (3 donors) of PD-L1 expression (shown as MFI) after MEK inhibition. (B) Human peripheral blood monocytes were pretreated with inhibitors of PI3K (LY294002; 10 μM) or Akt (Akt inhibitor III; 10 μM), followed by 100 ng/ml IL-25 stimulation. After IL-25 treatment for 18 hours, the expression of PD-L1 was assessed by cell surface staining. Pooled data (3 donors) provided in (C) of PD-L1 expression (shown as MFI). A.U., arbitrary units. […]

[2] = system: PD-L1 surface expression on hMSCs; assay: PD-L1 surface expression on hMSCs, flow cytometry; format: cell-based, human
Protocol: FIG. 7. IL-25 induces PD-L1 surface expression on hMSCs and human monocytes. (A) PD-L1 in siCtrl MSCs (left panel) and siPD-L1 MSCs (right panel) was analyzed by surface staining. (B) Freshly isolated human PBLs were co-cultured without (left panels) or with siCtrl MSCs (middle panels) or siPD-L1 MSCs (right panels) for 3 days, followed by PMA/ionomycin stimulation for 6 hours. IL-17A production in CD3^+ T cells was assessed by intracellular staining. Representative data shown with numbers in the top right quadrants representing the percentages of IL-17A-producing CD3^+ T cells. Pooled data from PBLs (n=4) and 2 hMSC donors (donors A & B) are provided in (C). Folds of reversed phenotypes of silL-25 and siPD-L1 are provided in (D). (E) PD-L1 expression on siCtrl hMSCs (left panel) and silL-25 hMSCs (right panel) was assessed by cell surface staining Filled histograms represent isotype control. […] Pooled data provided in (F) of PD-L1 expression (indicated by fold-change in mean fluorescence intensity; MFI) on silL-25-hMSCs and siPD-L1-hMSCs (all 3 donors). […] (G) hMSCs were treated with indicated doses of rhIL-25 for 18 hours and assessed for cell surface PD-L1 expression by cell surface staining. […] (H) Human PBLs were treated with indicated doses of rhIL-25 for 18 hours, and assessed for cell surface PD-L1 expression on monocytes, gated using FSC and SSC, by flow cytometric analysis. […]

[3] = system: myeloid-derived suppressor cells (MDSCs) in peripheral blood leukocytes; assay: Expansion of CD14-CD11b+CD33+ MDSCs from human PBLs by IL-25; format: cell-based; details: allogeneic PBL (2 donors), various doses of IL-25
Protocol: FIG. 11. IL-25 expands […] myeloid-derived suppressor cells (MDSCs) in peripheral blood leukocytes (PBLs). Expansion of CD14^−CD11b^+CD33^+ cells from human PBLs by recombinant human IL-25. Allogeneic PBL (2 donors) were cultured alone or with addition of various doses of IL-25 as indicated. PBL were first gated on forward scatter (FSC)/side scatter (SSC) (R1) then analyzed for CD14^− and CD11b^+ (R2), and further analyzed for CD33^+ (R3, cell percentages denoted).
To further confirm that IL-25 can induce expansion of MDSCs from peripheral blood, Allogeneic PBL (2 donors) were cultured alone or with addition of various doses of IL-25 as indicated (FIG. 11). The treated cells were first gated on forward scatter (FSC)/side scatter (SSC) (R1) then analyzed for CD14^− and CD11b^+ (R2), and further analyzed for CD33^+ (R3, cell percentages denoted).

[4] = system: IL-17A production in CD3+ T cells; assay: IL-17A production in CD4 T cells treated with rhIL-25, intracellular staining; format: cell-based, human; details: rhIL-25 alone for 18 hours, then PMA/ionomycin 6 hours
Protocol: FIG. 6. […] (A) Human CD4 T cells were treated with indicated doses of recombinant human IL-25 (rhIL-25) for 18 hours, followed by PMA/ionomycin stimulation for 6 hours. IL-17A production in CD3^+ T cells was assessed by intracellular staining. Numbers in the top right quadrants represent the percentages of IL-17A-producing CD3^+ T cells; (B) pooled data of 5 PBL donors. (C) Human CD4 T cells (n=4) were co-cultured without or with hMSCs (2 donors: B & C) in the absence or presence of transwell barriers. Pooled data from healthy donors are provided in (D). Data are shown as means±SD. **, p<0.01; n.s., not significant. […]
Cells were stained with antibodies as indicated: anti-human IL-25-PE (R&D Systems), mouse IgG1 isotype control-PE (R&D Systems), anti-human CD3-PE/Cy5 (BioLegend), anti-human CD4-PE (BioLegend), anti-human IL-17A-PE (eBioscience), anti-human IFN-γ-FITC (BioLegend), anti-human IL-22-PE (eBioscience), anti-human FOXP3-Alexa Fluor 488 (BD Pharmingen), anti-human CD274 […]-PE (eBioscience), mouse IgG1 isotype control-PE (eBioscience), anti-human IL-25R-PE (R&D Systems), and mouse IgG2b isotype control-PE (R&D Systems), anti-mouse CD4-APC (eBioscience), anti-mouse CD3e-PE/Cy5 (eBioscience), and anti-mouse/rat IL-17A-PE (eBioscience). Data was collected on BD FACSCalibur™ (BD Biosciences) instruments and analyzed with Cell Quest Pro software (BD Biosciences).

## COc1cccc(-c2cc(=O)c3ccccc3o2)c1N [PD98059]
[1]
  IL-25-mediated induction of PD-L1 in human primary monocytes: minimal effect

## C[C@H](NC(=O)/C(C#N)=C/c1cccc(Br)n1)c1ccccc1 [WP1066, reference compound]
[1]
  IL-25-mediated induction of PD-L1 in human primary monocytes: substantially abolished
[2]; inhibitor for 6 hours (WP1066 2.5 μM; SP600125 25 μM)
  PD-L1 expression in hMSCs: strongly reduced

B1: rhIL-25: Human recombinant IL-25 (PeproTech); IL-25 also known as IL17E (protein, UniProt Q9H293 33-177, looked up)
Interleukin-25: YSHWPSCCPSKGQDTSEELLRWSTVPVPPLEPARPNRHPESCRASEDGPLNSRAISPWRYELDRDLNRLPQDLYHARCLCPHCVSLQTGSHMDPRGNSELLYHNQTVFYRRPCHGEKGTHKGYCLERRLYRVSLACVCVRPRVMG
[1]; human PBLs treated with rhIL-25, indicated doses, 18 hours, dose-dependent
  PD-L1 expression in monocytes: dramatically and significantly increased
[3]
  expansion of MDSCs in PBLs: expands
[4]
  suppression of Th17 responses (IL-17A in CD4 T cells): failed to suppress Th17 responses to a significant extent
[2]; exogenous rhIL-25, indicated doses, 18 hours
  surface expression of PD-L1 on hMSCs: further upregulate surface expression of PD-L1 on hMSCs but not to a significant extent
